Source: PMC10715038
Where two headings read alike, the source gives them in different places.

How the values were obtained:
Test in all cases: SPR
[1] = biological target: Horse ACE2-huFc (soluble horse ACE2 ectodomain, human IgG1 Fc fusion) (horse (Equus caballus)) (UniProt F6V9L3)
[2] = biological target: Horse ACE2-huFc (soluble horse ACE2 ectodomain, human IgG1 Fc fusion) (horse (Equus caballus)) (UniProt F6V9L3); remark: listed apart in the source
[3] = biological target: Pangolin ACE2-huFc (soluble pangolin ACE2 ectodomain, human IgG1 Fc fusion) (pangolin (Manis javanica))

Substance: SARS-CoV-2 WHU01 Spike RBD, monomeric (from UniProt P0DTC2) (domain or fragment)
- Kd [1]: 67.4 nM
- Kd [2]: 89.8 nM
- Kd [3]: 67.1 nM
